Measured values as given in patent publication US20250313612A1 (Adimab, published 2025).
Residue numbers refer to the chain shown, from its start.

B1: ADI-14451 (antibody, V domains shown)
VH: EVQLVESGAEVRKPGASVKVSCKASGYIFINYYIHWVRQAPGQGLEWMGWINPNSGASNHAQTFEGRITMTTDTSSNTAYMELSRLREDDTAVYYCARSQQLLVITDYSLDYWGLGTLVTVSS
VL: SSELTQDPAVSVALGQTVRITCHGDTLRNYYPAWYQQKPGQAPVLVVSDRNTRPSGIPDRFSVSTSGNTASLTITGAQAEDEGDYYCNCRDSSGHRLVFGGGTKLTVL
B2: ADI-14505 (antibody, V domains shown)
VH: QVQLVQSGAEVKKPGASVKVSCKASGNSFNDFYMHWVRQAPGQGLEWMGWIDPNNGGANYAQKFHGRVTMTRDSSINTAYMELSRLRSDDTAVYYCASEPPGVGFGLIPHYYFDNWGQGTLVTVSS
VL: EIVMTQSPDSLAVSLGERATINCKSSQNVLDTSNNKNYLAWYQQKPGQPPRLLIYWASARGSGVPDRFSGSGSGTHFTLTISSLQAEDVAVYYCQQYFSIPPTFGQGTKVEIK
B3: ADI-14515 (antibody, V domains shown)
VH: QVQLVQSGGGVVQPGSSLRLSCSASGFTFMTYGMHWARQAPGKGLEWVADISFDANKKYYRDSVKGRFTISRDNSKNTVYLQMNSLRPEDTAVYFCARNTIFGVVDYWGQGTLVTVSS
VL: EIVLTQSPATLSVSPGERATLSCRASQSVSANLAWYQHKPGQAPRLLIYGASTRASDIPARFSGSGSGTEFTLTISSLQSEDSAVYYCQQYNNWPPWTFGQGTKVEIK
B4: ADI-14518 (antibody, V domains shown)
VH: QVQLVQSGPEVKKPGASVRVSCKTSGFTLSHYGVSWLRQAPGHGLEWLGWISAYNYNTQFGHRMEGRLTMTTDTSTAYMDLTSLTSDDTAIYYCARDSPSDTAAALLDFWGQGTLVTVSS
VL: DIVLTQSPLSLPVTLGQPASISCRSSQSLVYSDGNTYLSWFQQRPGQAPRRLIYKISNRDSGVPDRFSGSGSGTDFTLKISRVEAEDVGIYYCMQATHWPRLSFGGGTKVEIK
B5: ADI-14502 (antibody, V domains shown)
VH: QVQLVQSGAEVKKPGSSVKVSCKASGDTFSMYAISWVRQAPGQGLEWMGGVLPMLGTSNYAQQFRGRVTITADGSTSTAYMEMSNLRFEDTAVYYCARVAGLGNSYGRYFDVWGQGTLVTVSS
VL: DIRMTQSPSSVSASIGDRVTITCRASQDISTSLAWYQQRPGKAPNLLIYAASTLHSGVPSRFRGSESGPDFTLTISSLQPEDVGTYYCQQAKSFPYTFGQGTKLEIK
B6: ADI-14519 (antibody, V domains shown)
VH: EVQLVESGAEMKQPGASVKVSCEGFGNTLSERSIHWVRQAPGKGPEWMGDYDHEDKEAIYAPKFQGRLTISADMSTDIASLELNSLTSEDTAVYYCATVIAVGAYDIWGQGTLVTVSS
VL: EIVLTQSPSSLYASIGDRVTITCRTGQSISRYLNWYQQKPGKAPKLLIYAASTLQSGVPSRFSGSGAGTDFTLTIRGLLPEDFATYFCQQSYIIPYTFGQGTKVEIK
B7: ADI-14496 (antibody, V domains shown)
VH: QVQLVQSGAEVKKPGESLKISCQGSGYSFRSYWIGWVRQKPGKGLEYMGIIFPNDFDTRYSPSFQGQVTISVDKSTSTAFLQWTSLQASDTAIYYCGRQELQGSFTIWGQGTMVTVTS
VL: DIVMTQSPSSLSASVGDRVTITCQASQDMGNSLNWYQQKSGKAPKLLIYDASYLDSGVPSRFSGSGSGTHFTFTISTLQPEDIATYYCQHYDNLLLFTFGPGTKLEIK
B8: ADI-14442 (antibody, V domains shown)
VH: QVQLVQSGSEVKKPGASVKVSCKASGYRFSNYGISWVRQAPGQGLEWMGWISAYNGNIKYGNNLQGRVTVTTDTSTATAYMEVRSLTSDDTAVYYCARDVPADGVHFMDVWGQGTLVTVSS
VL: EIVMTQSPLSLPVTLGQPASISCRSSQSLVHSDTNTYLNWFQQRPGQSPRRLIYKVSNRDSGVPDRFSGSGSGTTFTLKISRVEAEDVGIYYCMQGSHWAPTFGQGTKVEIK
B9: ADI-14509 (antibody, V domains shown)
VH: QVQLVQSGSEVKKPGASVTLSCKASGYRFSNYGVSWVRQAPGQGLEWMGWISGYNGNIKYGNSLQGRVTLTTDTTTAYMEVTSLTSDDTAVYYCARDVPADGVHFMDVWGKGTTVTVSS
VL: B8 VL with M4L, N39T, N58H, S81A, Q95E, E110D
B10: ADI-14455 (antibody, V domains shown)
VH: QVQLVQSGAEVKKPGASVKVSCKASGYTFTSYGTSWVRQAPGQGLEWMGWISAYNGNTNYAQNLQGRVTMTTDTSTSTSYMELRSLRSDDTAVYYCARDVPVIAAGTMDYWGQGTLVTVSS
VL: B8 VL with E1D, S7T, H31Y, T34G, T75D, I90V, S97P, A100P, P101R
B11: ADI-14514 (antibody, V domains shown)
VH: B9 VH with L20V, G53A, I58T, T82R, A100G
VL: B8 VL with P18S, N39T, N58H, Q95E
B12: ADI-14489 (antibody, V domains shown)
VH: B8 VH with A77T, Q113K, L116T
VL: B8 VL with E1D, S7T
B13: ADI-14493 (antibody, V domains shown)
VH: QVQLQQWGTGLVKPSETLSLTCAVSGGAFSGHQWNWFRQPPGKGLEWIGEINVSGNTHYNVSLRSRVTISLDESKKQFSLKMTSVTAADTAIYYCAKASSGSYHFEYWFDPWSQGTMVTVSS
VL: SYELTQPPSVSVAPGKMAWFTCGGSDIGSKRVHWYQQKPGQAPVLLVYDDSLRPSGTSARVSGSTSGNTATLSIISVEAGDEADYFCQVWDDADDHAVFGGGTKLTVL
B14: ADI-14508 (antibody, V domains shown)
VH: QVQLVQSGTEVKKPGASVKVSCKGSGYMFANFGVSWVRQAPGRGLEWIGWISAYNGNTYYGREQGRFTMTTDTNTAYLELTSLRYDDTALYFCARDSGATAAGILWDYWGQGTLVTVSS
VL: EIVMTQSPLSLPVTLGQPASISCRSSQSLAYTDGSTYLNWFHQRPGQSPRRLIYKVFNRDSGVPDRFSGSGAGTDFTLTISRVEAEDVGVYYCMQATHWPRTFGQGTKVDIK
B15: ADI-14520 (antibody, V domains shown)
VH: QVQLQQWGAGLVKPSETLSLTCAVYGGSFSGYQWHWFRQPPGKGLEWIGEINHSEITHYNASLKSRVTLSIDTSKNQFSLNLTSVTAADTAVYYCARASSGSYNFEYWFDPWGQGTLVTVSS
VL: QSVLTQPPSVSVAPGKTAWLTCGGNNIGSKRVHWYRQKPGQAPVLVVYDDYDRPSGTPERVSGSNSGNTATLTISRVEDGDEGDYYCQVWDDPSDHAVFGGGTKLTVL
B16: ADI-14448 (antibody, V domains shown)
VH: EVQLVESGGGLVKPGGSLRLSCAASGSSFRYSYMSWVRQAPGKGLQWVASISPSSTYTDYADSVKGRSTISRDHDKISLQVNSLRGDDTAVYYCVRHMNLVMGPFAFDIWGRGTMVTVSS
VL: QSVVTQPPSLSGAPGQRITISCTGSSSNIGAGYDVNWYQQLPGTAPKLLIYAKTNRPSGVPERFSGSESGTSASLAITGLQPEDEADYYCQSYDRIGMYVFGTGTKLTVL
B17: ADI-14521 (antibody, V domains shown)
VH: QVQLVQSGTEVKKPGASVKVSCLTSGYTFTHFGISWVRQAPGQGLEWMGWFSAYNGNTKYAQKFQGRITLTIDTSTSIAYLELRSLRSDDTAVYYCARDPPSLTAAGTLDYWGQGTLVTVSS
VL: DIRLTQSPLSLPVTLGQPASISCSSNQSLVYSDGNTYLSWFQQRPGQSPRRLIYKVSDRDSGVPDRFSGSGSGTDFTLKISRVEAEDVGVYYCMQATDWPRTFGQGTKVEIK
B18: ADI-14501 (antibody, V domains shown)
VH: QVQLVQSGAEVKKPGSSVKISCKASGGTFKSQAIHWVRQAPGQGLEWMGNIIPTYGSPNFAQRFLGRVTFIADDSTGAASMDLYRLTSEDTAVYYCATAGWFGELVRFDSWGQGTLVTVSS
VL: DIVMTQSPATLSVSPGERATLSCRATESISSNLAWYQQKPGQAPRLLIYGASTRATGIPARFSGSGSGTEFTLTINSLQSEDFAVYYCQQYNNWPPLTFGGGTKVDIK
B19: ADI-14516 (antibody, V domains shown)
VH: QVQLVQSGVEVKKPGASVKVSCKTSGYTFSNYGVTWVRQAPGQGLEYMGWISAYNGNTNYAQNVQGRLTMTTDTSTSTGYMELRRLTSDDTAVYFCARDKGVTVAGSLLDYWGQGTLVTVSS
VL: EIVMTQSPLSLPVTLGQPASISCRSSQSLEHSDGNTYLNWFQQRPGQSPRRLIYKVSNRDSGVPDRFSGSGSGTDFTLKINRVEAEDVGVYYCMESTHWPPYTFGQGTKVEIK
B20: ADI-14456 (antibody, V domains shown)
VH: QVQLVQSGAEVKKPGASVKVSCEASEYSFSGDYVHWVRQAPGQGLEWMGWIKAVNGGANYAQKFHGRVTMTTDSSKSTVYLEMSRLTPADTAIYFCAKDRAASVHVPAGAFDLWGQGTLVTVSS
VL: DIQMTQSPSSLSAYVGDRVSITCRASQSIDNFLNWYRQRPGKAPELLIYAASTLQGGVPSRFSGSGSGTHFTLTISSLQPEDFATYYCQQSFTIPSITFGQGTRLEIK
B21: ADI-14444 (antibody, V domains shown)
VH: QVQLVQSGPDVKRPGASVRVSCKASGYTFSDYYMHWVRQAPGQGLEWLAWVNPSTGATHYSESFRGSMVVQRDTSTDTAYLELSSLKSDDTAVYYCARIGSNEIWGQGTMVTVSS
VL: QSALTQPASVSGSPGQSITISCAGTSSDIGGWNYVSWYQQYPGQVPKLILYEVTDRPSGVSHRFSGSKSGNRAFLTITGLRAEDEADYYCCSFTSSGSRVFGGGTKVTVL

Biological target: RSV F protein of recombinant mKate-RSV, subtype B (18537) (Respiratory syncytial virus subtype B …, UniProt P13843 26-574)
Assay: cell-based or functional assay

Row | Binder | Neut IC50 subtype B [µg/mL]
1 | B1 | 0.06
2 | B2 | 0.018
3 | B3 | 0.049
4 | B4 | 0.032
5 | B5 | 2.72
6 | B6 | 3.43
7 | B7 | > 10
8 | B8 | 0.015
9 | B9 | 0.016
10 | B10 | 0.036
11 | B11 | 0.074
12 | B12 | 0.021
13 | B13 | 1.27
14 | B14 | 0.057
15 | B15 | 0.045
16 | B16 | 0.066
17 | B17 | 0.123
18 | B18 | 2.29
19 | B19 | 0.047
20 | B20 | 0.372
21 | B21 | > 10

Biological target: RSV F protein of recombinant mKate-RSV, subtype A (strain A2) (Respiratory syncytial virus subtype A …, UniProt P03420 26-574)
Assay: cell-based or functional assay

Row | Binder | Neut IC50 subtype A [µg/mL]
22 | B1 | 0.02
23 | B2 | 0.065
24 | B3 | 0.051
25 | B4 | 0.019
26 | B5 | > 10
27 | B6 | 12.2
28 | B7 | 0.006
29 | B8 | 0.002
30 | B9 | 0.011
31 | B10 | 0.012
32 | B11 | 0.046
33 | B12 | 0.023
34 | B13 | 0.009
35 | B14 | 0.029
36 | B15 | 0.029
37 | B16 | 0.043
38 | B17 | 0.083
39 | B18 | 12.3
40 | B19 | 0.018
41 | B20 | > 10
42 | B21 | > 10
